{"source": "paper PMC11794116", "origin": "cited, not measured here", "biological_target": "CD16a (F176) (Homo sapiens) (UniProt P08637)", "sequence (P08637 17-208)": "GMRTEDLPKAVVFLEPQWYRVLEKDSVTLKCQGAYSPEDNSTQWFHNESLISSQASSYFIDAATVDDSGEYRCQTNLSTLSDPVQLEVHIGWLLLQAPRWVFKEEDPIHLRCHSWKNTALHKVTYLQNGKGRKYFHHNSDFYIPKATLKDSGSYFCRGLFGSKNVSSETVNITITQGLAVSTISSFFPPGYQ", "data": [{"substance": "trastuzumab Fc", "values": [{"measurement": "Kd", "result": 1070, "unit": "nM"}]}]}
